How the values were obtained:
huPD1 (human) = huPD1 (human) (UniProt Q15116); assay: biosensor kinetics (BLI type); antibody captured on anti-human Fc biosensor, PD-1 in solution
[1] = target: cyPD1 (cynomolgus monkey); assay: as above

Sequence of huPD1 (human) (Q15116 25-170 limits assumed): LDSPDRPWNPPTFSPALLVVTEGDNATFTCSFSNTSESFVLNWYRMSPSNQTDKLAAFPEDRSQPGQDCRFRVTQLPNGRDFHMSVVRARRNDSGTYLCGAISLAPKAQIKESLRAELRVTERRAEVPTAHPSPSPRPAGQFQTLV

Binder	Kd (huPD1 (human)) [µM]	koff (huPD1 (human)) [s⁻¹]	kon (huPD1 (human)) [M⁻¹ s⁻¹]	Kd [1] [µM]	koff [1] [s⁻¹]	kon [1] [M⁻¹ s⁻¹]
TA101 (antibody, V domains shown, Fc SEQ 587, CL SEQ 416) VH: DVQLVESGGGVARPGEFLRLSCAASGFTFRDYDMGWVRQAPGEGLEWVSSISVSGTTYYADSVKGRFTISRDNSENTLYLQMNSLTAEDTAVYYCGREDTLFHYWGLGTLVTVSS VL: QSVLTQPPSASGTPGQRVTISCSGSTSNIGTRYVYWYQQLPGTAPKLLIYKNLQRPSGVPDRFSGSKSGTSASLAISGLQSEDEADYYCAAWDERLNGWVFGGGTKLTVL	0.0329	0.022	680000	0.0622	0.0076	120000
TA104 (antibody, V domains shown, Fc SEQ 587, CL SEQ 416) VH: DVQLVESGGGVARPGESLRLSCAASGFTFRDYDMGWVRQAPGEGLEWVSSISVSGTTYYADSVKGRFTISRDNSENTLYLQMNSLTAEDTAVYYCGREDTLFHYWGLGTLVTVSS VL: QSVLTQPPSASGTPGQRVTISCSGSTSNIGTRYVYWYQQLPGTAPKLLIYKNLQRPSGVPDRFSGSKSGTSASLAISGLQSEDEADYYCAAWDERLNGWVFGGGTKLTVL	0.0331	0.024		0.0568	0.009	160000
TA275 (antibody, V domains shown, Fc SEQ 587, CL SEQ 416) VH: QVTLKESGPGILQPSQTLSLTCSFSGFSLSTFGMGVGWIRQPSGKGLEWLAHIWWDDDKYYNPALKSRLTISKDTSKNQVFLKIANVDTADTATYYCARIPTRYWYFDVWGTGTTVTVSS VL: QAVVTQESALTTSPGETVTLTCRSSTGAVTTSNYANWVQEKPDHLFTGLIGGTNNRAPGVPARFSGSLIGDKAALTITGAQTEDEAIYFCALWYSTHYVFGGGTKVTVL	0.6	0.2	330000	0.987	0.2	200000
TA289 (antibody, V domains shown, Fc SEQ 587, CL SEQ 416) VH: QVTLKESGPGILQPSQTLSLTCSFSGFSLSTFGMGVGWIRQPSGKGLEWLAHIWWDDDKYYNPALKSRLTISKDTSKNQVFLKIANVDTADTATYYCARIRGTWWYFDVWGTGTTVTVSS VL: QAVVTQESALTTSPGETVTLTCRSSTGAVTTSNYANWVQEKPDHLFTGLIGGTNNRAPGVPARFSGSLIGDKAALTITGAQTEDEAIYFCALWYSNQFIFGSGTKVTVL	0.484	1.6	3.4e+06	1.39	2.1	1.6e+06

The next binders have a lower Kd (huPD1 (human)) than those just listed; values first:

Kd (huPD1 (human)) [µM]	koff (huPD1 (human)) [s⁻¹]	kon (huPD1 (human)) [M⁻¹ s⁻¹]	Kd [1] [µM]	koff [1] [s⁻¹]	kon [1] [M⁻¹ s⁻¹]	Binder
0.00572	0.000647	113000	0.092	0.0137	149000	TA132 (antibody, V domains shown, Fc SEQ 587, CL SEQ 416) VH: EVQLLESGGAFVQPGGSLRLSCAASGFTFSDYYMSWVRQAPGKGLEWVSVISNSGGSTYYTDSVKGRFTISRDNSKNTLYLQINSLRAEDTAVYYCTKDIGMTYFDYWGQGTLVTVSS VL: QSVLTQPPSASGAPGQRVTISCSGSYSNIGNSYVSWYQQLPGTAPKLLIYLNSQRPSGVPDRFSGSKSGTSASLAISGLQSEDEADYYCAAWDDLNVWVFGGGTKLTVL
0.0248	0.014	540000	0.0072	0.01	1.4e+06	TA102 (antibody, V domains shown, Fc SEQ 587, CL SEQ 416) VH: DVQLVESGGGVVRPGESLRLSCAASGFTFRNYDMTWVRQAPGEGLEWVATISGTDDTTYYADSVKGRATISRDNSNNTLYLRLFSLRAEDTAIYYCAREASNSFIDYWGLGTLVTVSS VL: QSVLTQPPSASGTPGQRVTISCSGSSSNIGRRYVYWYQQLPGTAPKLLIYRNFERPSGVPDRFSGSKSGTSASLAISGLQSEDEADYYCASWDESLNGWVFGGGTKLTVL

From US20240368283A1
